The target in test [1] is T1, Aβ40 hexamer VFFAED on SPOT membrane.
T1 construct: Called a minimal motif found with the hexameric and decameric peptides
T1 peptide: Ac-VFFAED-{SPOT membrane}
Put plainly: SPOT membrane, hexameric and decameric peptides. As for the experimental part:
(§1) The SPOT membrane (Amino-PEG500-UC540 sheet, 100×150 mm, Intavis, Köln, Germany) for mapping the Aβ epitope of the Lcn2 muteins S1-A4 and US7 was prepared in an automated procedure as described by Frank ((2002) J. Immunol. Methods 262, 13-26) using a MultiPep RS instrument (Intavis, Köln, Germany) and activated amino acids from the same vendor. The Aβ40 amino acid sequence (SEQ ID NO: 29) was synthesized on the membrane in successive hexamers, decamers, and pentadecamers, each with a dislocation of 1 amino acid, thus covering the entire sequence. The C-termini of these peptides became covalently attached to the membrane whereas their N-termini were acetylated. Immobilized Strep-tag II served as a positive control for the detection method.
(§2) Prior to use, the membrane was washed once with ethanol, 3 times with PBS (4 mM KH₂PO₄, 16 mM Na₂HPO₄, 115 mM NaCl, pH 7.4), and blocked with 3% (w/v) BSA in PBS/T (PBS containing 0.1% (v/v) Tween 20) for 1 h. […]
(§3) Comparison of the membranes incubated with S1-A4 and wild-type Lcn2, respectively, yielded prominent spots that only occurred upon incubation of the membrane with S1-A4 and not with wild-type Lcn2. […] With the shorter hexameric and decameric peptide sequences binding of S1-A4 to the minimal motives VFFAED and FFAEDV was detected.

The target in test [2] is T2, Aβ40 hexamer FFAEDV on SPOT membrane.
T2 construct: Called a minimal motif found with the hexameric and decameric peptides
T2 peptide: Ac-FFAEDV-{SPOT membrane}
Put plainly: SPOT membrane, hexameric and decameric peptides. The method, then: as §1, §2, §3

Test [3] addresses T3, MBP-Aβ40 fusion protein.
T3 construct: the entry may be a nucleic acid; Biotin-labelled in the capture ELISA, unlabeled in the direct ELISA and SPR; also called MBP-Abeta40
Briefly: capture ELISA: mutein captured, biotinylated MBP-Aβ40 titrated. The method, then: FIG. 5 depicts the binding activity of the Lcn2 muteins H1-G1, S1-A4, and US7 in capture ELISAs with different biotinylated Aβ targets. StrepMAB-Immo at 10 μg/ml was immobilized on microtitre plates and employed for capturing of 1 JAM Lcn2 muteins via the Strep-tag H. In figures A to C the binding of the Lcn2 muteins S1-A4 and US7 to (A) biotinylated Aβ40, (B) biotinylated Trx-Aβ28, and (C) biotinylated MBP-Aβ40 are shown. Binding was detected by incubation with ExtrAvidin/AP and a subsequent chromogenic reaction with pNPP. Ovalbumin (Ova), thioredoxin (Trx), and maltose binding protein (MBP) were used as negative controls. Additionally, binding of wild-type (wt) lipocalin was tested. The data were fitted to a monovalent binding model.
For selective capturing of the Lcn2 muteins carrying the C-terminal Strep-tag II (Schmidt and Skerra (2007) Nat. Protoc. 2, 1528-1535), a 96-well MaxiSorp polystyrene microtitre plate (Nunc, Langenselbold, Germany) was coated with 10 μg/mL StrepMAB-Immo (IBA, Göttingen, Germany) in PBS over night at 4° C. and blocked with 3% (w/v) BSA in PBS/T at room temperature for 1 h. After 3 washing steps with PBS/T, 50 μL of a 1 μM solution of the purified Lcn2 muteins from Example 7 were applied to all wells for 1 h. […]

Test [4] addresses T3, MBP-Aβ40 fusion protein. Put plainly: SPR (Biacore), MBP-Aβ40 amine-coupled; same experiment as the 1st table, row 20, column 2, printed with more digits. The method, then:
FIG. 8 depicts the kinetic real time analysis of Lcn2 muteins S1-A4 (A) and US7 (B) measured on a Biacore instrument at a flow rate of 10 μl/min. The MBP-Aβ40 fusion protein was coupled via amine chemistry on a CMD 200I chip (ΔRU=1455) and each of the purified Lcn2 muteins was applied in a series at different concentrations. The measured signal is shown as a grey line whereas the curve fit is depicted as a black line in each case.
Real time analysis of Lcn2 muteins was performed on a Biacore X system (Biacore, Uppsala, Sweden) using PBS/T (PBS containing 0.005% (v/v) Tween 20) as running buffer. A 50 μg/mL solution of MBP-Aβ40 from Example 2 in 10 mM Na-acetate, pH 4.5 was immobilized onto a […] chip (Xantec, Düsseldorf, Germany) using standard amine coupling chemistry, resulting in a ligand density of 1455 resonance units (RU). […] The sensorgrams were corrected by subtraction of the corresponding signals measured for the control channel, which had been activated and blocked with ethanolamine. […] During this step the kₒₙ and koff rates were fitted globally, while the maximum response difference Rₘₐₓ was fitted locally for each curve.
On the technique in general: SPR reads the build-up and loss of mass on a sensor chip optically.

The term Kd denotes the free concentration of one partner at which half of the binding sites on the other are occupied at equilibrium, for simple one-to-one binding.

B1: Lcn2 mutein S1-A4 (designed binder)
chain: QDSTSDLIPAPPLSKVPLQQNFQDNQFHGKWYVVGVAGNYTLREDKDPLKMYATIYELKEDKSYNVTSVGFRLKKCNYKIRTFVPGSQPGEFTLGIIKSQPGMTSYLVRVVSTNYNQHAMVFFKTVGQNREMFNITLYGRTKELTSELKENFIRFSKSLGLPENHIVFPVPIDQCIDG
With B1, the binding result in test [1] and in test [2] was “binds” in each case. In addition, the Kd with MBP-Aβ40 fusion protein [3] amounted to 4.7 nM; with MBP-Aβ40 fusion protein [4], 1.74 nM.

The record behind these values is patent publication US20130079286A1 (Pieris, published 2013).
